According to US20040132094A1 (ANAPHORE, published 2004):

B1: Phtlec phage (Phtlec-gene III fusion protein displayed on recombinant phage) (other)
chain: PAMAEPPTQKPKKIVNAKKDVVNTKMFEELKSRLDTLAQEVALLKEQQALQTVVLKGTKVHMKVFLAFTQTKTFHEASEDCISRGGTLSTPQTGSENDALYEYLRQSVGNEAEIWLGLNDMAAEGTWVDMTGTRIAYKNWETEITAQPDGGKTENCAVLSGAANGKWFDKRCRDQLPYICQFGIVA
notes: Tested as whole phage particles rescued with M13KO7; claim 15 says htlec itself is position 5 Glu to 185 Val of it; also called human Phtlec phages; Phlec; not shown: phage gene III protein fused after the Phtlec part, as encoded by phagemid pCANTAB 5E; limits and any tag in between not
B2: PhTN3 phage (PhTN3-gene III fusion protein displayed on recombinant phage) (other)
chain: PAMAALQTVCLKGTKVHMKCFLAFTQTKTFHEASEDCISRGGTLSTPQTGSENDALYEYLRQSVGNEAEIWLGLNDMAAEGTWVDMTGARIAYKNWETEITAQPDGGKTENCAVLSGAANGKWFDKRCRDQLPYICQFGIVA
notes: Tested as whole phage particles rescued with M13KO7; claim 18 says hTN3 is position 5 Ala to 141 Val of it; also called human PhTN3 phages; PhCTLD; not shown: phage gene III protein fused after the PhTN3 part, as encoded by phagemid pCANTAB 5E; limits and any tag in between not

Molecular target: T1, bovine serum albumin (bovine, UniProt P02769 25-607)
T1 construct: Control coating; also called BSA
T1 sequence (P02769 25-607 limits assumed): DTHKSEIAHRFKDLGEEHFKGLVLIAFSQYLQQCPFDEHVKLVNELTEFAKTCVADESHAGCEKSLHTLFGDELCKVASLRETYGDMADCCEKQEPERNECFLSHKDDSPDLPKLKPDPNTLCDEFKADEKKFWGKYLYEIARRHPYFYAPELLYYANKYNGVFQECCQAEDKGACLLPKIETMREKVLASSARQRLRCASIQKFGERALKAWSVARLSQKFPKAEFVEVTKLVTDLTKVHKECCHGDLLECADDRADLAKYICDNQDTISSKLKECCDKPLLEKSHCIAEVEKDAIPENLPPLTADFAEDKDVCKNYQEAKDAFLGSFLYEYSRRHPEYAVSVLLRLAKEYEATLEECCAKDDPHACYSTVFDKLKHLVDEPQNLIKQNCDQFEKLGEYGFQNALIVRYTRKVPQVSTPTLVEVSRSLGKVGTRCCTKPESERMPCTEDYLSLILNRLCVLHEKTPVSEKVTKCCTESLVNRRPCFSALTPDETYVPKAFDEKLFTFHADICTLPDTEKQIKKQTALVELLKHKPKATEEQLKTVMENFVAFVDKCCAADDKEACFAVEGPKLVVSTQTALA
Assay: phage ELISA on coated BSA, HRP anti-phage detection
Experimental: Recombinant phages were isolated by precipitation with poly(ethylene glycol) (PEG 8000) and samples of Phtlec and PhTN3 phage preparations as well as a sample of helper phage were subjected to an ELISA-type sandwich assay, in which wells of a Maxisorb (Nunc) multiwell plate were first incubated with anti-human tetranectin or bovine serum albumin (BSA) and blocked in skimmed milk or skimmed milk/EDTA. Briefly, cultures of pPhtlec and pPhTN3 phagemid transformed TG1 cells were grown at 37° C. in 2×TY-medium supplemented with 2% glucose and 100 mg/L ampicillin until A₆₀₀ reached 0.5. By then the helper phage, M13K07, was added to a concentration of 5×10⁹ pfu/mL. The cultures were incubated at 37° C. for another 30 min before cells were harvested by centrifugation and resuspended in the same culture volume of 2×TY medium supplemented with 50 mg/L kanamycin and 100 mg/L ampicillin and transferred to a fresh set of flasks and grown for 16 hours at 25° C. Cells were removed by centrifugation and the phages precipitated from 20 mL culture supernatant by the addition of 6 mL of ice cold 20% PEG 8000, 2.5 M NaCl. After mixing the solution was left on ice for one hour and centrifuged at 4° C. to isolate the precipitated phages. […] Phages in the wells were detected after incubation with HRP-conjugated anti-phage conjugate (Amersham Pharmacia, code no. 27-9421-01) followed by further washing.

Row | Binder | binding result
1 | B1 | no binding
2 | B2 | no binding
